From paper PMC5568246

Columns and labels:
[1] = target: 70S ribosomes (E. coli JE28, with endogenous L7/L12) (E. coli (endogenous in JE28)) (UniProt P0A7K2); test: other fluorescence titration
[2] = target: L7/L12-depleted 70S ribosomes (E. coli (endogenous in JE28)) (UniProt P0A7J3); test: SEC
[3] = target: L7/L12-depleted 70S ribosomes reconstituted with recombinant L12 (E. coli | E. coli (endogenous in JE28)) (UniProt P0A7K2); test: co-sedimentation
[4] = target: L7/L12-depleted 70S ribosomes (E. coli (endogenous in JE28)) (UniProt P0A7J3); test: co-sedimentation
[5] = target: recombinant ribosomal protein L12 (E. coli) (UniProt P0A7K2); test: SEC

Sequence of UniProt P0A7J3 (P0A7J3 whole entry, looked up): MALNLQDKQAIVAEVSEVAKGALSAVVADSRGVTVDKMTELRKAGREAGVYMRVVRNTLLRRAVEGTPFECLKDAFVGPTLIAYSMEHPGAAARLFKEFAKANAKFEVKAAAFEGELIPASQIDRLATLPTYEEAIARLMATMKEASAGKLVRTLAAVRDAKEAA

## EF-G-591 coupled with 5-iodoacetomido fluorescein (from UniProt P0A6M8 1-704) (enzyme)
[1]
  Kd: 23 nM

## elongation factor G (from UniProt P0A6M8 1-704) (enzyme)
[2]
  percent co-eluted with the ribosomes: 20%

## initiation factor 2 (from UniProt P0A705 1-890) (enzyme)
[3]
  percent binding relative to complete 70S: 100%

## leader peptidase A (from UniProt P60785 1-599) (enzyme)
[4]
  percent binding retained: > 50%
[2]
  percent binding retained: > 50%

## recombinant ribosomal protein L12 (from UniProt P0A7K2 1-121) (natural protein)
[5]
  stoichiometry N: 2

## release factor 3 (from UniProt P0A7I4 1-529) (enzyme)
[3]
  percent binding relative to complete 70S: 100%
